According to article PMC4507534:

Experiments:
Assay in all cases: purified protein
Details in all cases: pH and temperature of the kinetic assay not given
purified protein [1] = substrate: COC(=O)C(C)Oc1ccc(Oc2ccc(Cl)cc2Cl)cc1
purified protein [2] = substrate: COC(=O)[C@@H](C)Oc1ccc(Oc2ncc(C(F)(F)F)cc2Cl)cc1
purified protein [3] = substrate: C#CCOC(=O)[C@@H](C)Oc1ccc(Oc2ncc(Cl)cc2F)cc1
purified protein [4] = substrate: CCOC(=O)[C@@H](C)Oc1ccc(Oc2nc3ccc(Cl)cc3o2)cc1
purified protein [5] = substrate: CCCCOC(=O)[C@@H](C)Oc1ccc(Oc2ccc(C(F)(F)F)cn2)cc1
purified protein [6] = substrate: CCOC(=O)[C@@H](C)Oc1ccc(Oc2cnc3cc(Cl)ccc3n2)cc1

B1: FeH (FE-hydrolyzing carboxylesterase) (Rhodococcus sp. JPL-2) (protein)
chain: MSDIHGVCDARFSALREALERNLDSGEDVGASIAVTLDGEPVVDIWGGSMDAGGSRPWERDTITNVWSCSKTVTALAALMLVDRGQLDLDAPVARYWSDFAANGKEGILVRHLLSHTSGVSGWDQPFTMDDLADTTKATELLAAQAPWWEPGTASGYHALNYGHLIGEVVRRVDGRTLTGFIEEEISRPLGADFRLGVARSDYSRVSEVIPPPPLPIDFATLDPASVMVKTFTGPPADATAAWGDGWREAEIGAANGHSNARALARIQSVIACGGRVGGVRLLSADTIDAIFDEQSYGVDLVLGVPVRFGVGFGLPTPESVPFVPEGRICFWGGWGGSQIIVDTERRMTVAYVMNKMGPGLLGSDRSAEYVSAAFAAVP
Km (purified protein [1]): 410 µM | kcat (purified protein [1]): 0.33 s⁻¹ | kcat/Km (purified protein [1]): 810 M⁻¹ s⁻¹ | Km (purified protein [2]): 390 µM | kcat (purified protein [2]): 0.37 s⁻¹ | kcat/Km (purified protein [2]): 940 M⁻¹ s⁻¹ | Km (purified protein [3]): 290 µM | kcat (purified protein [3]): 0.61 s⁻¹ | kcat/Km (purified protein [3]): 2090 M⁻¹ s⁻¹ | Km (purified protein [4]): 200 µM | kcat (purified protein [4]): 0.7 s⁻¹ | kcat/Km (purified protein [4]): 3520 M⁻¹ s⁻¹ | Km (purified protein [5]): 360 µM | kcat (purified protein [5]): 0.59 s⁻¹ | kcat/Km (purified protein [5]): 1650 M⁻¹ s⁻¹ | Km (purified protein [6]): 230 µM | kcat (purified protein [6]): 0.75 s⁻¹ | kcat/Km (purified protein [6]): 3250 M⁻¹ s⁻¹
